T1: cynomolgus IL-36R overexpressed on 293T-CynoIL36R-NFκB cells (cynomolgus monkey)
T1 construct: Entry includes the signal peptide; also called monkey IL-36R
T1 chain: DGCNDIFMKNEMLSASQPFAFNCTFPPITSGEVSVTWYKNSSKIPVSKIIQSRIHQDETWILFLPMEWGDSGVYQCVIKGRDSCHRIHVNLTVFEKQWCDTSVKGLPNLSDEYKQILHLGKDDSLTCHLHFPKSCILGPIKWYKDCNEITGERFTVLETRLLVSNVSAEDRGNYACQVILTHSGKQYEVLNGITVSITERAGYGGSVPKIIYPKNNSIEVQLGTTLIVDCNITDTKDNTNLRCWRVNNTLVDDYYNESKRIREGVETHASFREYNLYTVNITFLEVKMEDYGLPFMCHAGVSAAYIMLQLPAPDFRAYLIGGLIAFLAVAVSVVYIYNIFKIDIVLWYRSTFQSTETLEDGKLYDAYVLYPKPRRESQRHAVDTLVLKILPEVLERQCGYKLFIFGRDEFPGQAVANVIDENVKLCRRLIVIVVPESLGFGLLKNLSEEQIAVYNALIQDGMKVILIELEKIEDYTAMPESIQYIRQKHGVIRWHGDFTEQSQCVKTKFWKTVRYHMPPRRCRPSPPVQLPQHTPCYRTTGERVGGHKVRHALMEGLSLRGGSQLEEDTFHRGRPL

T2: CynoIL36R-ECD mFc recombinant protein (cynomolgus monkey)
T2 construct: Made in ExpiCHO, purified on Protein A; also called cynomolgus IL-36R extracellular region with mouse antibody heavy chain Fc
T2 chain: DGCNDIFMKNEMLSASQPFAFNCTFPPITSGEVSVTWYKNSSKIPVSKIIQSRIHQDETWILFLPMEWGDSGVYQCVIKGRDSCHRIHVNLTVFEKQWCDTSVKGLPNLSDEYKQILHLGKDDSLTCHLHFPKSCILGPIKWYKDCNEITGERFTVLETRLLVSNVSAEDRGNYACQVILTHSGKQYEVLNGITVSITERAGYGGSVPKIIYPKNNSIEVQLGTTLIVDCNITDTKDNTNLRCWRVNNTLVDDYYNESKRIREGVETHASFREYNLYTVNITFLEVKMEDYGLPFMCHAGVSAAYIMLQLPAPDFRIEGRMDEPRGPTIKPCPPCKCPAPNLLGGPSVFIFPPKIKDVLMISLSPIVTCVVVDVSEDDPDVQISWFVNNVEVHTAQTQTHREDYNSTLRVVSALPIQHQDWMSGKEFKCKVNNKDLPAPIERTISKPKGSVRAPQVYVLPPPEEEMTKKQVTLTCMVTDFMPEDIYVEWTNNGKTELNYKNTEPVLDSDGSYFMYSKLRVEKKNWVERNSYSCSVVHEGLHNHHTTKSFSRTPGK


How the values were obtained:
[1] = target: T1, cynomolgus IL-36R overexpressed on …; assay: FACS on 293T-CynoIL36R-NFκB cells, ratio of MFI to background MFI
Experimental: After the cells was washed with PBS, the cells were resuspended with 100 μL of PBS and then the fluorescence signal was detected using a flow cytometer (BD, Accuri C6). […] The ratio was the ratio of mean fluorescence intensity (MFI) of the experimental group/the background MFI, and the resulting data were analyzed using GraphPad Prism.
Affinity, binding and blocking assays for humanized antibodies hz72C1-1.1, hz72C1-1.2, hz72C1-1.3, hz72C1-2.1, hz72C1-2.2 and hz72C1-2.3 as well as hz84C4-1.1, hz84C4-1.2, hz84C4-1.3, hz84C4-1.4, hz84C4-1.5, hz84C4-2.1, hz84C4-2.2, hz84C4-2.3, hz84C4-2.4 and hz84C4-2.5 were performed according to the methods of Example 4, Example 5. Example 6, Example 7 and Example 8.

[2] = target: T2, CynoIL36R-ECD mFc recombinant protein; assay: ELISA, plate coated with CynoIL36R-ECD mFc, HRP-protein A/G, OD450
Experimental: The binding activity of anti-IL-36R antibodies to IL-36R was analyzed by ELISA using human IL-1Rrp2/IL-1R6 protein, His Tag (ACROBiosystems, IL2-H52H6) and CynoIL36R-ECD mFc (for detection of chimeric and humanized antibodies), and hIL36R-ECD hFc and CynoIL36R-ECD hFc protein (for detection of hybridoma antibodies) as antigens. A 96-well plate (Costar, 9018) was coated with 2 μg/mL antigen at 100 μL/well and incubated overnight at 4° C. After the 96-well plate was washed with a washing buffer (PBS containing 0.05% v/v Tween 20), a blocking buffer (PBS containing 2% bovine serum albumin) was added for blocking at 37° C. for 2 h. After the 96-well plate was washed with the washing buffer, 100 μL of the gradient diluted anti-IL-36R antibody of the present disclosure or the reference antibody BI655130 (the initial concentration of the antibody was 66 nM, 4-fold gradient dilution) was added to each well, and the plate was incubated at room temperature for 1 h. After the 96-well plate was washed with the washing buffer, 100 μL of horseradish peroxidase-conjugated recombinant protein A/G (TheroScientific, 32490) was added to each well, and the plate was incubated at room temperature for 1 h. After the 96-well plate was washed with the washing buffer, 100 μL of a TMB solution (Thermo, 00-4201-56) was added to each well, and the plate was incubated at room temperature for 2 min. Finally, 100 μL of a stop solution (2 N H₂SO₄) was added to each well to stop the reaction. Absorbance was read at 450 nm using a microplate reader (PE, Envision), the resulting data was analyzed using GraphPad Prism, and EC₅₀ was calculated. Binding EC₅₀ of the chimeric anti-IL-36R antibodies to hIL-36R in an ELISA assay is shown in FIG. 1. and binding EC₅₀ of the chimeric anti-IL-36R antibodies to CynoIL-36R in an ELISA assay is shown in FIG. 2. The binding of BI655130 is shown as a control, and the binding of IgG4 is shown as a negative control.

Row | Binder | EC50 [1] [nM] | EC50 [2] [nM]
1 | hz72C1-1.2 (antibody, human IgG4 S228P, kappa, Humanized, human IgG4 / kappa) heavy: not shown light: DIQMTQSPSSLSASVGDRVTITCRASSNVRYMYWYQQKPGKAPKLWIYLTSNLASGVPSRFSGSGSGTSYTLTISSLQPEDFATYYCQQFTTSPYTFGQGTKLEIKRTVAAPSVFIFPPSDEQLKSGTASVVCLLNNFYPREAKVQWKVDNALQSGNSQESVTEQDSKDSTYSLSSTLTLSKADYEKHKVYACEVTHQGLSSPVTKSFNRGEC | ~4.94 | 4.26
2 | hz72C1-1.3 (antibody, human IgG4 S228P, kappa, Humanized, human IgG4 / kappa) heavy: not shown light: DIQMTQSPSSLSASVGDRVTITCRASSNVRYMYWYQQKPGKAPKLWIYLTSNLASGVPSRFSGSGSGTSYTLTISSLQPEDFATYYCQQFTTSPYTFGQGTKLEIKRTVAAPSVFIFPPSDEQLKSGTASVVCLLNNFYPREAKVQWKVDNALQSGNSQESVTEQDSKDSTYSLSSTLTLSKADYEKHKVYACEVTHQGLSSPVTKSFNRGEC | 5.76 | 2.86
3 | hz72C1-1.1 (antibody, human IgG4 S228P, kappa, Humanized, human IgG4 / kappa; also called humanized 72C1 antibody 1.1) heavy: not shown light: DIQMTQSPSSLSASVGDRVTITCRASSNVRYMYWYQQKPGKAPKLWIYLTSNLASGVPSRFSGSGSGTSYTLTISSLQPEDFATYYCQQFTTSPYTFGQGTKLEIKRTVAAPSVFIFPPSDEQLKSGTASVVCLLNNFYPREAKVQWKVDNALQSGNSQESVTEQDSKDSTYSLSSTLTLSKADYEKHKVYACEVTHQGLSSPVTKSFNRGEC | 5.21 | 2.73
4 | hz72C1-2.1 (antibody, human IgG4 S228P, kappa, Humanized, human IgG4 / kappa) heavy: not shown light: DIQMTQSPSSLSASVGDRVTITCRASSNVRYMYWYQQKPGKAPKLWIYLTSNLASGVPSRFSGSGSGTSYTLTISSLQPEDFATYYCQQYTTSPYTFGQGTKLEIKRTVAAPSVFIFPPSDEQLKSGTASVVCLLNNFYPREAKVQWKVDNALQSGNSQESVTEQDSKDSTYSLSSTLTLSKADYEKHKVYACEVTHQGLSSPVTKSFNRGEC | 5.58 | 10.5

Further binders by falling EC50 [1], results first:

Row | EC50 [1] [nM] | EC50 [2] [nM] | Binder
5 | 7.25 | 4.87 | hz72C1-2.2 (antibody, human IgG4 S228P, kappa, Humanized, human IgG4 / kappa) heavy: not shown light: DIQMTQSPSSLSASVGDRVTITCRASSNVRYMYWYQQKPGKAPKLWIYLTSNLASGVPSRFSGSGSGTSYTLTISSLQPEDFATYYCQQYTTSPYTFGQGTKLEIKRTVAAPSVFIFPPSDEQLKSGTASVVCLLNNFYPREAKVQWKVDNALQSGNSQESVTEQDSKDSTYSLSSTLTLSKADYEKHKVYACEVTHQGLSSPVTKSFNRGEC
6 | 5.64 | 1.97 | BI655130 (antibody, human IgG1, kappa, L234A L235A, also called Spesolimab) heavy: not shown light: QIVLTQSPGTLSLSPGERATMTCTASSSVSSSYFHWYQQKPGQAPRLWIYRTSRLASGVPDRFSGSGSGTDFTLTISRLEPEDAATYYCHQFHRSPLTFGAGTKLEIKRTVAAPSVFIFPPSDEQLKSGTASVVCLLNNFYPREAKVQWKVDNALQSGNSQESVTEQDSKDSTYSLSSTLTLSKADYEKHKVYACEVTHQGLSSPVTKSFNRGEC
7 | 4.84 | 6.38 | hz72C1-2.3 (antibody, human IgG4 S228P, kappa, Humanized, human IgG4 / kappa) heavy: not shown light: DIQMTQSPSSLSASVGDRVTITCRASSNVRYMYWYQQKPGKAPKLWIYLTSNLASGVPSRFSGSGSGTSYTLTISSLQPEDFATYYCQQYTTSPYTFGQGTKLEIKRTVAAPSVFIFPPSDEQLKSGTASVVCLLNNFYPREAKVQWKVDNALQSGNSQESVTEQDSKDSTYSLSSTLTLSKADYEKHKVYACEVTHQGLSSPVTKSFNRGEC
